# Source: article PMC3000947
# B1: Fur7 (Streptomyces sp. KO-3988) (protein)
# chain: MPGTDDVAVDVASVYSAIEKSAGLLDVTAAREVVWPVLTAFEDVLEQAVIAFRVATNARHEGDFDVRFTVPEEVDPYAVALSRSLIAKTDHPVGSLLSDIQQLCSVDTYGVDLGVKSGFKKVWVYFPAGEHETLARLTGLTSMPGSLAGNVDFFTRYGLADKVDVIGIDYRSRTMNVYFAAPSECFERETVLAMHRDIGLPSPSEQMFKFCENSFGLYTTLNWDTMEIERISYGVKTENPMTFFARLGTKVEHFVKNVPYGVDTQKMVYAAVTSSGEEYYKLQSYYRWRSVSRLNAAYIAARDKEST
# Key:
# purified protein [1] = substrate: O=C1C(O)=CC(=O)c2c(O)cc(O)cc21; test: purified protein; conditions: 2 mM GPP, 50 mM Hepes-NaOH pH 7.5, 5 mM MgCl2, 30 °C
# purified protein [2] = substrate: Oc1cc(O)c2ccccc2c1; test: purified protein; conditions: 2 mM GPP, 50 mM Hepes-NaOH pH 7.5, 5 mM MgCl2, 30 °C
protein,measurement,setting,value
B1,Km,purified protein [1],48 ± 2 µM
same,kcat,purified protein [1],28 ± 3 × 10^-3 s^-1
same,kcat/Km,purified protein [1],580 M⁻¹ s⁻¹
same,Km,purified protein [2],320 ± 20 µM
same,kcat,purified protein [2],0.13 ± 0.05 × 10^-3 s^-1
same,kcat/Km,purified protein [2],0.41 M⁻¹ s⁻¹
